# Residues, ends and D or L forms follow the SMILES beside them. *: point of attachment. Cbz = O=C(OCc1ccccc1)*
# B1: HopM11-300: N-terminal protective fragment of HopM1, amino acids 1-300 (SEQ ID NO:82) (protein, listed as Pseudomonas syringae)
# chain: MISSRIGGAGGVELSRVNQQHDTVPAQTAHPNAVTAGMNPPLTPDQSGSHATESSSAGAARLNVAARHTQLLQAFKAEHGTAPVSGAPMISSRAALLIGSLLQAEPLPFEVMAEKLSPERYQLKQFQGSDLQQRLEKFAQPGQIPDKAEVGQLIKGFAQSVADQLEHFQLMHDASPATVGQHAKADKATLAVSQTALGEYAGRASKAIGEGLSNSIASLDEHISALDLTLQDAEQGNKESLHADRQALVDAKTTLVGLHADFVKSPEAKRLASVAAHTQLDNVVSDLVTARNTVGGWKGA
# modifications: 6xHis tag
# B2: HopM1301-712: HopM1 truncated derivative, amino acids 301-712 (protein)
# chain: GPIVAAAVPQFLSSMTHLGYVRLSTSDKLRDTIPETSSDANMLKASIIGMVAGIAHETVNSVVKPMFQAALQKTGLNERLNMVPMKAVDTNTVIPDPFELKSEHGELVKKTPEEVAQDKAFVKSERALLNQKKVQGSSTHPVGELMAYSAFGGSQAVRQMLNDVHQINGQTLSARALASGFGGAVSASSQTLLQLKSNYVDPQGRKIPVFTPDRAESDLKKDLLKGMDLREPSVRTTFYSKALSGIQSSALTSALPPVTAQAEGASGTLSAGAILRNMALAATGSVSYLSTLYTNQSVTAEAKALKAAGMGGATPMLDRTETALNNIRHPNRESLPHTFQKSTLSGIPRVAENAYHMGRGALQLPTQMAVDTVRVVDEGVLNAVASAREALKQPTKDDDALRALEEGLLDPR
# modifications: left off: small tags and cut ends
# B3: HopM1101-712: HopM1 truncated derivative lacking the first 100 aa (SEQ ID NO:98) (protein, listed as Pseudomonas syringae)
# chain: LLQAFKAEHGTAPVSGAPMISSRAALLIGSLLQAEPLPFEVMAEKLSPERYQLKQFQGSDLQQRLEKFAQPGQIPDKAEVGQLIKGFAQSVADQLEHFQLMHDASPATVGQHAKADKATLAVSQTALGEYAGRASKAIGEGLSNSIASLDEHISALDLTLQDAEQGNKESLHADRQALVDAKTTLVGLHADFVKSPEAKRLASVAAHTQLDNVVSDLVTARNTVGGWKGAGPIVAAAVPQFLSSMTHLGYVRLSTSDKLRDTIPETSSDANMLKASIIGMVAGIAHETVNSVVKPMFQAALQKTGLNERLNMVPMKAVDTNTVIPDPFELKSEHGELVKKTPEEVAQDKAFVKSERALLNQKKVQGSSTHPVGELMAYSAFGGSQAVRQMLNDVHQINGQTLSARALASGFGGAVSASSQTLLQLKSNYVDPQGRKIPVFTPDRAESDLKKDLLKGMDLREPSVRTTFYSKALSGIQSSALTSALPPVTAQAEGASGTLSAGAILRNMALAATGSVSYLSTLYTNQSVTAEAKALKAAGMGGATPMLDRTETALNNIRHPNRESLPHTFQKSTLSGIPRVAENAYHMGRGALQLPTQMAVDTVRVVDEGVLNAVASAREALKQPTKDDDALRALEEGLLDPR
# Legend:
# AtMIN7 = assay: Proteasome/protease inhibitors on HopM1-mediated destabilization of AtMIN7 in N. benthamiana leaves (immunoblot); type: cell-based, Arabidopsis thaliana; conditions: AtMIN7:HA and 6×His:HopM1 1-712 co-expressed
# Description: AtMIN-HA and 6×His-HopM1 proteins were detected using the HA and 6×His epitope antibodies, respectively. AtMIN7-HA was pulled down with HopM1-300 but not with 6×His-HopM1301-712; and (C) Western blot and reverse transcription polymerase chain reaction analyses of HopM1-dependent destabilization of AtMIN7 in Arabidopsis plants. Leaves of Col-0 gl1 plants were infiltrated with water or 1×10^8 CFUs per milliliter of DCEL mutant bacteria with or without pORF43 and harvested 10 hours later. The endogenousAtMIN7 protein—detected with the use of a rabbit polyclonal AtMIN7 antibody—was absent in leaves infiltrated with DCEL mutant bacteria (pORF43) that produce HopM1; however, the AtMIN7 transcript level was not reduced. […] AtMIN7:HA and 6×His:HopM11-712 proteins were detected with HA and 6×His epitope antibodies, respectively.
# N. benthamiana plants were transiently transformed with HopM1 and AtMIN proteins. In brief, fully expanded N. benthamiana leaves were co-infiltrated with Agrobacterium tumefaciens C58 C1 (for an example of co-infiltration techniques, see, Hellens, et al. (2005) Plant Methods, 1:13; herein incorporated by reference) comprising plasmids and genes described herein (for example, see, Bechtold, et al. (1993) Comptes Rendus De L Academie Des Sciences Serie Iii-Sciences De La Vie-Life Sciences 316(10):1194-1199; herein incorporated by reference). […]
# [1] = test system: transgenic plants expressing full-length HopM1; assay: DEX spraying of transgenic plants expressing full-length HopM1; type: in vivo, Arabidopsis
# [2] = test system: Pst DC3000 ΔCEL mutant-pORF43 bacteria; assay: Bacterial multiplication and disease symptoms in HopM1 transgenic Arabidopsis plants; type: in vivo, Pseudomonas syringae
# Description: (§1) Following inoculation, infected plants were monitored daily over a 3- to 4-day period for symptom development and bacterial multiplication. For experiments described in FIGS. 1 and 5, plants were sprayed with 30 μM dexamethasone (DEX) 24 h before bacterial inoculation (1×10^6 cfu/ml).
# (§2) Leaves were harvested and surface sterilized as follows: 1) whole leaves were removed from a host plant and gently mixed in a 70% ethanol solution for 1 minute. Leaves were blotted briefly on paper towels then rinsed in sterile distilled water for 1 minute, then blotted dry on paper towels. Leaf disks were excised from leaves with a 0.5 cm^2 or smaller cork borer, depending on the size of the sample leaves; 2) leaf disks from the leaves of 2 or more independent replicate plants were pooled for a single tissue sample and placed in a 1.5-mL microfuge tube with 100 μL sterile distilled water, the amount of leaf tissue per tube was recorded as leaf surface area. Three or more samples were harvested for each time point. […] The number of serial dilutions necessary to get countable colonies were determined for each sample, however dilutions to 10^−7 were usually sufficient for any bacterial strain; 7) The samples were plated on the appropriate medium (e.g., Low salt Luria Bertani) supplemented with the necessary antibiotics to select for the specific inoculated bacterial strain. […]
# [3] = test system: Arabidopsis Y2H cDNA library; assay: Yeast two-hybrid (Y2H) screening with HopM1 baits; type: binding; conditions: protein used as bait
# Excerpt: A LexA-based yeast two-hybrid system was used for screening an Arabidopsis Y2H cDNA library using full-length HopM1 and the dominant-negative domain of HopM1 (HopM11-300) as bait, in separate screenings. This system was based upon a pGilda Lex A expression vector (CLONTECHniques, OCTOBER 1999 p. 26-27, Clontech Laboratories Inc.; herein incorporated by reference in its entirety) for expressing HopM1 proteins in combination with a lacZ reporter gene on a separate plasmid that autonomously replicated in yeast (CLONTECHniques, OCTOBER 1999 p. 26-27, Clontech Laboratories Inc.; herein incorporated by reference in its entirety), see below for addition information (see, MATCHMAKER LexA Two-Hybrid System Catalog #K1609-1 and MATCHMAKER LexA Libraries User Manual (PT3040-1) Version It PR67300 and (Yeast Protocols Handbook, Protocol # PT3024-1 Version # PR13103, published 14 Mar. 2001; herein incorporated by reference in its entirety).
# hopM1 DNA fragments were amplified by PCR using the primers listed below and standard PCR procedures then fragments were isolated and cloned into a bait vector pGilda Lex A (resistance to ampicillin (100 μg/ml) to E. coli hosts; Protocol # PT3147-5; Version # PR81829; Clontech Laboratories, Inc.; herein incorporated by reference in its entirety). […]
# AtMIN7-HA = molecular target: T1, AtMIN7-HA (Arabidopsis thaliana, UniProt F4IXW2, DEL212-213/INS429[…]); assay: Protein pull-down assay in N. benthamiana leaves; type: binding; conditions: Ni-NTA pull-down, immunoblot
# T1 construct: expressed in transfected cells; host or cells: Nicotiana benthamiana leaves, Agrobacterium tumefaciens C58C1 co-infiltration (pBI121-AtMIN or pBAR1-AtMIN, CaMV 35S promoter)
# Excerpt: N. benthamiana plants were transiently transformed with HopM1 and AtMIN proteins. In brief, fully expanded N. benthamiana leaves were co-infiltrated with Agrobacterium tumefaciens C58 C1 (for an example of co-infiltration techniques, see, Hellens, et al. (2005) Plant Methods, 1:13; herein incorporated by reference) comprising plasmids and genes described herein (for example, see, Bechtold, et al. (1993) Comptes Rendus De L Academie Des Sciences Serie Iii-Sciences De La Vie-Life Sciences 316(10):1194-1199; herein incorporated by reference).
# Protein pull-down analysis methods: N. benthamiana leaf discs were homogenized in lysis buffer (50 mM Tris-HCl pH=8.0, 250 mM NaCl, 10 mM β-mercaptoethanol, 1% Triton X100, 1 mM PMSF, plant protease inhibitor cocktail [Sigma Co.]). Total protein extracts were collected after centrifugation of the homogenate at 20,000-×g for 15 min at 4° C. to remove insoluble materials. The supernatant was incubated with Ni-NTA agarose beads (Qiagen) with gentle shaking for 1 hour at 4° C., followed by centrifugation at 15,000-×g for 1 min to pull down 6×His-HopM1 and its interacting proteins. Beads were then washed three times with lysis buffer and resuspended in 1×SDS-PAGE sample buffer for SDS-PAGE gel and/or immunoblot analyses. […] AtMIN10-HA was detected using the HA epitope antibody.
# Pst DC3000 ΔCEL mutant = assay: Bacterial multiplication and disease symptoms in HopM1 transgenic Arabidopsis plants; type: in vivo, Pseudomonas syringae; conditions: protein expressed in transgenic Arabidopsis (Col-0 gl1), DEX-induced
# Description: as §1, §2
# T1 sequence (F4IXW2 with tags, fused parts or gaps DEL212-213/INS429[withheld]): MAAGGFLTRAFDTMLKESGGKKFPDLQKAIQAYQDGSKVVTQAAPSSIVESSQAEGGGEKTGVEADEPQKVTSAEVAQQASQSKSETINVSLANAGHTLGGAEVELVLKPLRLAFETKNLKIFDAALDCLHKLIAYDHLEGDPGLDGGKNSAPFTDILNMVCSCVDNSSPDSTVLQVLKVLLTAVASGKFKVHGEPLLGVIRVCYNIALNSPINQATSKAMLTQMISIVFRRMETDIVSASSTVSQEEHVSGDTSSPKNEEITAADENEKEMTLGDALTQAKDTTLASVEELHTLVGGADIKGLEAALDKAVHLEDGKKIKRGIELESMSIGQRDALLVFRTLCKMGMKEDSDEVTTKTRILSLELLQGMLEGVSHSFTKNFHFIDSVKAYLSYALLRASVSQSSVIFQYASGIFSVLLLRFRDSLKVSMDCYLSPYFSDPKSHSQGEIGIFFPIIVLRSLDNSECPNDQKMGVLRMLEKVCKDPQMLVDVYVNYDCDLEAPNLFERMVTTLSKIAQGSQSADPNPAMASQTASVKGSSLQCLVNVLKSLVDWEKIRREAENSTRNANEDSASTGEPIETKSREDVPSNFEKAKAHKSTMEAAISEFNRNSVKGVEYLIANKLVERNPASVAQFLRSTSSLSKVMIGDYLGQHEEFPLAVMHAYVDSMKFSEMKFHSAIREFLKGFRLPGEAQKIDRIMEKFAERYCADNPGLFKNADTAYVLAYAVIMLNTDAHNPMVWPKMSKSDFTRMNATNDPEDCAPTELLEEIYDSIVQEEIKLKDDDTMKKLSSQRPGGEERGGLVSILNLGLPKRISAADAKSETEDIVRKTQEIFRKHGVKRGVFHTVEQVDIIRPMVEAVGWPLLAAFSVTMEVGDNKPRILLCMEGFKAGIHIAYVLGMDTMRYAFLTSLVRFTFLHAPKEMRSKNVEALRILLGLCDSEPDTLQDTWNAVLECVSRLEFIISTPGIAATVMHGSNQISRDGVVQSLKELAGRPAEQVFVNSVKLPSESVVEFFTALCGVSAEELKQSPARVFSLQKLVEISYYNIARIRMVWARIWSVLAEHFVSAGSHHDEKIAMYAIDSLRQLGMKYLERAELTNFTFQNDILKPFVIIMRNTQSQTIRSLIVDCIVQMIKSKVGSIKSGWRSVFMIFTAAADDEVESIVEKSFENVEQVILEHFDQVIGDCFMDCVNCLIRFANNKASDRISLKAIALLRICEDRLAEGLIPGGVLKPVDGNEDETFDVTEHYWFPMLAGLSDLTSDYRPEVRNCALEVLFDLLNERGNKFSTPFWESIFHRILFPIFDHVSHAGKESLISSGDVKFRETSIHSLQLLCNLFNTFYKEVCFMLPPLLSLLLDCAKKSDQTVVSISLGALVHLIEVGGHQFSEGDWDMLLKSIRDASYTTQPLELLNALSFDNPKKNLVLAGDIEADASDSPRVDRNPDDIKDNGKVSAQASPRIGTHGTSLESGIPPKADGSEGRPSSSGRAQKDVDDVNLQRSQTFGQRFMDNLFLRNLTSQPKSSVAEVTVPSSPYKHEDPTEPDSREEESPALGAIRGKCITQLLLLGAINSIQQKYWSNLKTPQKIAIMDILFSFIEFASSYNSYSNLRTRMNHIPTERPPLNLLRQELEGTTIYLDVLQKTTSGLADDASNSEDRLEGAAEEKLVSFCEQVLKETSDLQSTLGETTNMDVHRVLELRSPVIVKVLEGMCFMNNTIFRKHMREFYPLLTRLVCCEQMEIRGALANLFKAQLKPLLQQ
molecule,measurement,setting,value
CC(C)C[C@@H](C=O)NC(=O)[C@H](CC(C)C)NC(=O)[C@H](CC(C)C)NC(=O)OCc1ccccc1 [MG132] (Cbz-Leu-Leu-Leu-aldehyde),HopM1-mediated destabilization of AtMIN7,AtMIN7,blocked
"C[C@@H]1C[C@H]2[C@@H]3CCC4=CC(=O)C=C[C@]4(C)[C@@]3(F)[C@@H](O)C[C@]2(C)[C@@]1(O)C(=O)CO [DEX, dexamethasone]",leaf necrosis,[1]; 0.003 μM spray,did not induce leaf necrosis
same,leaf necrosis,[1]; 30 μM DEX spray,induced rapid leaf necrosis
same,time to leaf necrosis,[1]; 30 μM DEX spray,≤ 10 h
CC[C@H](C)[C@H](NC(=O)[C@H]([C@@H](C)CC)N(C)C(C)=O)C(=O)N[C@H](C(=O)N[C@@H](CC(C)C)C(=O)[C@@]1(C)CO1)[C@@H](C)O [epoxomicin],HopM1-mediated destabilization of AtMIN7,AtMIN7,blocked
B1,effect on the function of full-length HopM1 delivered from the infecting bacteria,[2]; fragment expressed in transgenic Arabidopsis,dominant-negative effect
same,disease symptoms (necrosis and chlorosis) and bacterial multiplication,[2]; transgenic Arabidopsis vs Col-0 gl1 or plants expressing other truncated derivatives,significantly reduced
same,interactors recovered in Y2H screen,[3],21
same,physical interaction with AtMIN7-HA,AtMIN7-HA,physical interaction
B2,physical interaction with AtMIN7-HA,AtMIN7-HA,no interaction
B3,"complementation of the virulence defect (multiplication, disease symptoms)",Pst DC3000 ΔCEL mutant,partially restored
